The values below are quoted from earlier work in publication PMC4554922.

pKd: −log10 of the molar value.

For the series, the target named is SAS-6 head domain (UniProt Q6UVJ0).

As to SAS-6 head domain (from UniProt Q6UVJ0), the negative-log Kd (pKd) is 4.10.

The pKd is the Kd on a negative log10 scale, so that one unit is a factor of ten.
